Source: paper PMC3494461

Substrate: CC(=O)C(=O)O
Assay: purified protein
Type: biochemical, Escherichia coli
Conditions: 37 °C, pyruvate (1–90 mM) as donor and acceptor, no D-GAP

B1: DXP synthase (Escherichia coli K-12) (protein)
chain: SFDIAKYPTLALVDSTQELRLLPKESLPKLCDELRRYLLDSVSRSSGHFASGLGTVELTVALHYVYNTPFDQLIWDVGHQAYPHKILTGRRDKIGTIRQKGGLHPFPWRGESEYDVLSVGHSSTSISAGIGIAVAAEKEGKNRRTVCVIGDGAITAGMAFEAMNHAGDIRPDMLVILNDNEMSISENVGALNNHLAQLLSGKLYSSLREGGKKVFSGVPPIKELLKRTEEHIKGMVVPGTLFEELGFNYIGPVDGHDVLGLITTLKNMRDLKGPQFLHIMTKKGRGYEPAEKDPITFHAVPKFDPSSGCLPKSSGGLPSYSKIFGDWLCETAAKDNKLMAITPAMREGSGMVEFSRKFPDRYFDVAIAEQHAVTFAAGLAIGGYKPIVAIYSTFLQRAYDQVLHDVAIQKLPVLFAIDRAGIVGADGQTHQGAFDLSYLRCIPEMVIMTPSDENECRQMLYTGYHYNDGPSAVRYPRGNAVGVELTPLEKLPIGKGIVKRRGEKLAILNFGTLMPEAAKVAESLNATLVDMRFVKPLDEALILEMAASHEALVTVEENAIMGGAGSGVNEVLMAHRKPVPVLNIGLPDFFIPQGTQEEMRAELGLDAAGMEAKIKAWLA
For B1, the K0.5 was 51.0 ± 1.7 mM.
